Data as given in patent US20210206847A1.
pKd: −log10 of the molar value.

Molecular target: biotin-labeled soluble FcRn protein (UniProt P55899)
Test: SPR; pH 6.0

pKd | Substance
6.93 | 1-B10-9 (from UniProt P0DOX5 233-449)
6.98 | novel IgG1 Fc monomer (sFc) (from UniProt P0DOX5 233-449)
